In the supplement of paper PMC10126150:
± gives the standard deviation of the averaged measurements.

Tested on: ATP
Assay: switch fluorescence ratio, 500 uM ATP over buffer (Cy3 cluster intensity, sum of 5 cycles each) (fold (ratio)); higher = stronger signal-on switching upon ATP binding; sequences stand for … in TCGTCGGCAGCGTCAGATGTGTATAAGAGACAGTTTTTTTTTTTTTTTTTTTTTTTTT…TC
Conditions: aptamer strand: ATP DNA aptamer (quencher-CACCTGGGGGAGTATTGCGGAGGAAGG + anchor), 100 nM annealed; ATP concentration: 500 uM
How it was run: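 For every switch-domain sequence, the fluorescence ratio is the mean of per-cluster values, each being summed target-cycle Cy3 intensity over summed buffer-cycle Cy3 intensity. Clusters outside 100-1000 RFU were excluded. On a modified Illumina MiSeq flow-cell, the Cy3-labelled switching-strand clusters were annealed to 100 nM quencher-labelled ATP aptamer, imaged in selection buffer and then after 15 min with 500 uM ATP at 22 °C. Five such cycles were run, with NaOH stripping and re-annealing between them.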
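Note: ATP exposure 15 min at 22 °C before imaging.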

Sequence | switch fluorescence ratio
GGGCGCTTTC | 1.03 ± 0.028
AAAGGTAGAG | 1.01 ± 0.04
TTAATTCGTC | 0.949 ± 0.021
GCGCGCGGAA | 1.016 ± 0.0016
GCATTGGCGG | 0.993 ± 0.044
GGCCATCTGG | 1.04 ± 0.026
GCGGGAAATT | 1 ± 0.03
AGGTGAGGGT | 1.022 ± 0.0047
TTCAGTTTTA | 1.017 ± 0.0035
GGGTGGTTGC | 0.99544 ± 4.2e-05
TACGTCCCGG | 1.08 ± 0.014
TGACGTTCGG | 0.978 ± 0.029
GTGTTATTTT | 0.998 ± 0.053
TTACTTCTTT | 0.976 ± 0.027
TTTATCTAGG | 1.02 ± 0.017
TGAACAAGGG | 0.962 ± 0.015
GGTTTTATTG | 0.987 ± 0.044
AGGGGGATTG | 0.987 ± 0.03
GCCGGGGTCG | 1.02 ± 0.037
TTTCGGGCTG | 0.984 ± 0.015
CTAGTCCTGA | 0.986 ± 0.043
TAAGGTGTGA | 1.02 ± 0.038

Sequence | switch fluorescence ratio
AACGGGTCTG | 1.01 ± 0.039
TAATGCTGTT | 0.997 ± 0.049
ACAGCTTTTT | 1.01 ± 0.013
GCAAATGCGT | 1.03 ± 0.059
TTTGTGGGC | 0.981 ± 0.028
GACTGGTTGG | 1.02 ± 0.029
CGGGGAGGGG | 0.985 ± 0.028
TCATGTTAGG | 0.994 ± 0.0075
CGGTAGTGCG | 0.975 ± 0.021
ATCTTGGCAG | 0.968 ± 0.034
GCCTGGGGGG | 1.02 ± 0.042
CCTTTTGGGC | 0.97636 ± 3.3e-05
ATTAGCTGGT | 0.952 ± 0.017
TGATACGGGG | 1.01 ± 0.026
ATCTTCCCCC | 1.55 ± 0.016
AACTTTTTTT | 0.98236 ± 0.00064
TTGTTCCATA | 1 ± 0.033
TACCCTTTTT | 1.01 ± 0.054
ATGGATTTAA | 1.012 ± 0.0041
ACAAAGGTCG | 1.01 ± 0.022
AGAGGCGAGG | 0.9913 ± 0.0013
GCTTTTATCA | 0.978 ± 0.01

Sequence | switch fluorescence ratio
TTAAAGTTTT | 1.01 ± 0.032
TGGGTGGGAA | 1.02 ± 0.04
ATGTTCGGGC | 1.04 ± 0.035
CGGACTAGGT | 1.02 ± 0.011
ATCGAATAGC | 1.02 ± 0.034
ACCACGGGGT | 1.02 ± 0.038
TGTGTGTGTT | 1.02 ± 0.03
CGAATCTTGT | 1.01 ± 0.016
TTAGTATGTT | 1 ± 0.035
TGGATCATAA | 0.973 ± 0.068
CGCTATTATT | 1.05 ± 0.04
GTGGGGGAGC | 0.985 ± 0.029
AAGAGGGTGG | 0.997 ± 0.02
TAGATCGCTG | 0.931 ± 0.028
GAGTTTGTCC | 0.998 ± 0.012
TCGTTGAGGG | 0.96 ± 0.036
GGGGTAGGAG | 1.03 ± 0.093
GCCACAGTCG | 1.01 ± 0.022
GACTGGGCGA | 1.02 ± 0.029
CCTCGGGTTA | 1.42 ± 0.038
AGACATGTTT | 0.981 ± 0.014
CGGGTGTATC | 1.03 ± 0.046

Sequence | switch fluorescence ratio
TTCAGGGGCT | 1.43 ± 0.58
CAGAGACCTG | 1.02 ± 0.057
TATGTTTCTA | 1.0004 ± 0.00054
CGTCATTAAG | 0.9994 ± 0.0054
TTGTATTAGG | 0.968 ± 0.05
GGTATTGGGG | 1.03 ± 0.034
TTTTCAGGAA | 1.018 ± 0.0092
ACATCTGACA | 1.06 ± 0.019
ATTCGAGAAG | 0.997 ± 0.018
TTGACAGAGT | 1.01 ± 0.028
AGTATATTGG | 0.99 ± 0.044
AATTGTATCA | 1 ± 0.054
TATGTTTTTC | 0.9687 ± 0.0014
TACTAGTTGG | 0.997 ± 0.011
AGCTGTGATG | 1.01 ± 0.058
AATCGTCTTG | 0.97 ± 0.034
ATGTAGTCTT | 1 ± 0.0038
TCCCGGTTTG | 1.009 ± 0.01
TTTGACGTTG | 1.02 ± 0.047
